Measurements as given in patent publication US20140120128A1.

Legend:
Assay in all cases: cell-based or functional assay
[1] = target: human TLR3 expressed on HEK293 cells (human) (UniProt O15455)
[2] = target: T1, human TLR9 expressed on HEK293 cells (human) (UniProt Q9NR96)
T1 sequence: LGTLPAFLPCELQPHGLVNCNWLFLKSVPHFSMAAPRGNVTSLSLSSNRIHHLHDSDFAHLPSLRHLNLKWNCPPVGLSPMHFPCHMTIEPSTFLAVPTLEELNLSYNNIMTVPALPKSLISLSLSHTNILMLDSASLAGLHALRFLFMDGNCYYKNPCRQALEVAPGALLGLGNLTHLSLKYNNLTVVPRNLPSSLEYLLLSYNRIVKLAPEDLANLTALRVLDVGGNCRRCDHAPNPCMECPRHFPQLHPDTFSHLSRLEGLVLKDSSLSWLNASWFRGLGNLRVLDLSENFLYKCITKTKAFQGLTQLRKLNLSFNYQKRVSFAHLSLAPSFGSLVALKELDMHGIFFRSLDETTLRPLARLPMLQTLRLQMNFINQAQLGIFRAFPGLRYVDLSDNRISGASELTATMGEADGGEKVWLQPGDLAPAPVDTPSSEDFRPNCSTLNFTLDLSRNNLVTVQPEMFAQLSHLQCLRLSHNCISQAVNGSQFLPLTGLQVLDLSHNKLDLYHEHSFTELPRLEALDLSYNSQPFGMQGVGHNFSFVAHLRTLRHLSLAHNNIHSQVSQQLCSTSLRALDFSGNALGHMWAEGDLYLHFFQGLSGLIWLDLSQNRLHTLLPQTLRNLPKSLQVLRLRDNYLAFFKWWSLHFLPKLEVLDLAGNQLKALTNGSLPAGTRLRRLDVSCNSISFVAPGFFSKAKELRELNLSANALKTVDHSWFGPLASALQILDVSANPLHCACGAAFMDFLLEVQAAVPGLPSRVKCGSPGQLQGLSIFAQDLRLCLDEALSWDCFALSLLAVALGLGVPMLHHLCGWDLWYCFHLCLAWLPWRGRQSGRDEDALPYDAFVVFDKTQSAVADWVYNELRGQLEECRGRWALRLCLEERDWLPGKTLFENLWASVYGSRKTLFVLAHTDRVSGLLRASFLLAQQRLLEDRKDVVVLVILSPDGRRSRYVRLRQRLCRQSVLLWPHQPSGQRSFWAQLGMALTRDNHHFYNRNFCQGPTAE

[3] = target: T2, human TLR8 expressed on HEK293 cells (human) (UniProt Q9NR97)
T2 sequence: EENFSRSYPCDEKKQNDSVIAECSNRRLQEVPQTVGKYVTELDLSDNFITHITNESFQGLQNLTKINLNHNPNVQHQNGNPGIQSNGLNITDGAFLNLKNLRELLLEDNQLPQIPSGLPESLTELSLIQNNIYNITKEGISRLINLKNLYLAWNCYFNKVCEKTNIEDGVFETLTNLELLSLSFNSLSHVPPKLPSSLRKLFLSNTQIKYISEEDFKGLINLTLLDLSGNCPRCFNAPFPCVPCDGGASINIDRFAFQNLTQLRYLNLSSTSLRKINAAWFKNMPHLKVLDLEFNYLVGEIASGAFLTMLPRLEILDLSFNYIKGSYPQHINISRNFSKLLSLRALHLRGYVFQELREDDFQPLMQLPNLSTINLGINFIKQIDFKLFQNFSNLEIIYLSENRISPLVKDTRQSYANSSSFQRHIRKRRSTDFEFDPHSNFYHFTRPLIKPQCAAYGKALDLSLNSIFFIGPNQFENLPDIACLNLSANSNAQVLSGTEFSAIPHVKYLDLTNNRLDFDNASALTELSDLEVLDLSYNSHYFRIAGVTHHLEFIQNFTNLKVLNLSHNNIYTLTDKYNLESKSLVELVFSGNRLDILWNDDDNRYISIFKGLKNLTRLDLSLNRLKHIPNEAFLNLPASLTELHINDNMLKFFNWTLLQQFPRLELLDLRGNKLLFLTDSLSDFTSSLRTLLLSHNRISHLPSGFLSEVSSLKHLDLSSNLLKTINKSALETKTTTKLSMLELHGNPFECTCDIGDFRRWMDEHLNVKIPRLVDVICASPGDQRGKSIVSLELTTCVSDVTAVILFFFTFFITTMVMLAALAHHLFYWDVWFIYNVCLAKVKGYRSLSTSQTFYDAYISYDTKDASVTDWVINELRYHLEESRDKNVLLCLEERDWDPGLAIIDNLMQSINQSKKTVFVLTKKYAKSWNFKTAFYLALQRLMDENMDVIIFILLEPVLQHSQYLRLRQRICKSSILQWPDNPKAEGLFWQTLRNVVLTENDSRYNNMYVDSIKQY

[4] = target: human TLR2 expressed on HEK293 cells (human) (UniProt O60603)
Sequence of human TLR2 expressed on HEK293 cells (human) (O60603 21-784): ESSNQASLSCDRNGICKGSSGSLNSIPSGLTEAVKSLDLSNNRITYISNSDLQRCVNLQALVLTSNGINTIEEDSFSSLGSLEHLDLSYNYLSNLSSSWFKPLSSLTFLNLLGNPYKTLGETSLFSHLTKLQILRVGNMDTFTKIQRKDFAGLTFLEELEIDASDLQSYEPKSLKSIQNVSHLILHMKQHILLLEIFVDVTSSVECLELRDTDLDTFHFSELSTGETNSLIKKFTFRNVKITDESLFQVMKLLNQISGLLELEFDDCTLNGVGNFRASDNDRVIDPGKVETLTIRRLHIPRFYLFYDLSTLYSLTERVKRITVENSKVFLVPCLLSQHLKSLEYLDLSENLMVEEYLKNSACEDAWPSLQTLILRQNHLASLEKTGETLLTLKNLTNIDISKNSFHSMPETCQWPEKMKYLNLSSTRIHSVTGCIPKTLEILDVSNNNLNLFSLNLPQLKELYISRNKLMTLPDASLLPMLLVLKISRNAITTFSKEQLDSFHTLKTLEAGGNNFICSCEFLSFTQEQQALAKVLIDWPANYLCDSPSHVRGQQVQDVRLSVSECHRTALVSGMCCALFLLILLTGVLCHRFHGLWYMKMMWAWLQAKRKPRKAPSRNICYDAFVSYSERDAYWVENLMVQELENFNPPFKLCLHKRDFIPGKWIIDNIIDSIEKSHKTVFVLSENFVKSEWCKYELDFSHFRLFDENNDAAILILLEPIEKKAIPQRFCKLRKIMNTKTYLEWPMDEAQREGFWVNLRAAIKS

[5] = target: human TLR4 (MD2-CD14) expressed on HEK293 cells (human) (UniProt O00206)
Sequence of human TLR4 (MD2-CD14) expressed on HEK293 cells (human) (O00206 24-839 limits assumed, chain 1 of 3): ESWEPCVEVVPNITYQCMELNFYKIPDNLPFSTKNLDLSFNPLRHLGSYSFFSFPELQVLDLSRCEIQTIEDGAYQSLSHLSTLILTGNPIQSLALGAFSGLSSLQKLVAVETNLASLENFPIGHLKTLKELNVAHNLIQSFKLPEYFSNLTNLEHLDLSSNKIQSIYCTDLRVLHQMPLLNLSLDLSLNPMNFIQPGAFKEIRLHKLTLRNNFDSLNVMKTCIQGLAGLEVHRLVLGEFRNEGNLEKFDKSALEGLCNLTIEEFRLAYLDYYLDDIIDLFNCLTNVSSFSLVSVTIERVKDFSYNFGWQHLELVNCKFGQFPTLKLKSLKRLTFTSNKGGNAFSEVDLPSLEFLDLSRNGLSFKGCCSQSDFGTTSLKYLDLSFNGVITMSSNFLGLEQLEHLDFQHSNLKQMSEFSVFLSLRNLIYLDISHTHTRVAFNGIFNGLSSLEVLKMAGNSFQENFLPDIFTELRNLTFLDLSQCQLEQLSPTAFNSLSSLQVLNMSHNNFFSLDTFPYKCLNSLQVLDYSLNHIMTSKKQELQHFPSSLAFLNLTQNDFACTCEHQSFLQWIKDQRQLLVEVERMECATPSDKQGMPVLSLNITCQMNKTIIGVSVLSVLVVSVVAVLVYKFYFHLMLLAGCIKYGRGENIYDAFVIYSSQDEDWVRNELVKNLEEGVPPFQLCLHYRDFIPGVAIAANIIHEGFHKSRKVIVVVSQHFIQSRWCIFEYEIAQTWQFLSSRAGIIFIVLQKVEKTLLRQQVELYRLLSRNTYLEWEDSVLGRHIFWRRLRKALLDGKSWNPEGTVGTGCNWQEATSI
Sequence of human TLR4 (MD2-CD14) expressed on HEK293 cells (human) (Q9Y6Y9 19-160 limits assumed, chain 2 of 3, further chain): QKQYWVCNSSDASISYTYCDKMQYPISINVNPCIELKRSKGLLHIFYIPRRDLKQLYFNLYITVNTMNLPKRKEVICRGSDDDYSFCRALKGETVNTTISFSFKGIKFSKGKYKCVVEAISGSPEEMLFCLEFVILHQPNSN
Sequence of human TLR4 (MD2-CD14) expressed on HEK293 cells (human) (P08571 20-345 limits assumed, chain 3 of 3, further chain): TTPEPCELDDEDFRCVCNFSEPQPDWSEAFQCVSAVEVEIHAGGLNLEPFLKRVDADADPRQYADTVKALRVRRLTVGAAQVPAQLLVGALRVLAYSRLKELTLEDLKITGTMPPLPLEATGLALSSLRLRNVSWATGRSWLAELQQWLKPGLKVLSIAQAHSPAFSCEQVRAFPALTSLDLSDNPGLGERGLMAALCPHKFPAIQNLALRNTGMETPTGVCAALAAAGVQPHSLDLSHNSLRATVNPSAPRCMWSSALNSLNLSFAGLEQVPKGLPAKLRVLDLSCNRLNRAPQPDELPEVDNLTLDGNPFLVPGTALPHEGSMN

[6] = target: human TLR5 expressed on HEK293 cells (human) (UniProt O60602)
Sequence of human TLR5 expressed on HEK293 cells (human) (O60602 21-858): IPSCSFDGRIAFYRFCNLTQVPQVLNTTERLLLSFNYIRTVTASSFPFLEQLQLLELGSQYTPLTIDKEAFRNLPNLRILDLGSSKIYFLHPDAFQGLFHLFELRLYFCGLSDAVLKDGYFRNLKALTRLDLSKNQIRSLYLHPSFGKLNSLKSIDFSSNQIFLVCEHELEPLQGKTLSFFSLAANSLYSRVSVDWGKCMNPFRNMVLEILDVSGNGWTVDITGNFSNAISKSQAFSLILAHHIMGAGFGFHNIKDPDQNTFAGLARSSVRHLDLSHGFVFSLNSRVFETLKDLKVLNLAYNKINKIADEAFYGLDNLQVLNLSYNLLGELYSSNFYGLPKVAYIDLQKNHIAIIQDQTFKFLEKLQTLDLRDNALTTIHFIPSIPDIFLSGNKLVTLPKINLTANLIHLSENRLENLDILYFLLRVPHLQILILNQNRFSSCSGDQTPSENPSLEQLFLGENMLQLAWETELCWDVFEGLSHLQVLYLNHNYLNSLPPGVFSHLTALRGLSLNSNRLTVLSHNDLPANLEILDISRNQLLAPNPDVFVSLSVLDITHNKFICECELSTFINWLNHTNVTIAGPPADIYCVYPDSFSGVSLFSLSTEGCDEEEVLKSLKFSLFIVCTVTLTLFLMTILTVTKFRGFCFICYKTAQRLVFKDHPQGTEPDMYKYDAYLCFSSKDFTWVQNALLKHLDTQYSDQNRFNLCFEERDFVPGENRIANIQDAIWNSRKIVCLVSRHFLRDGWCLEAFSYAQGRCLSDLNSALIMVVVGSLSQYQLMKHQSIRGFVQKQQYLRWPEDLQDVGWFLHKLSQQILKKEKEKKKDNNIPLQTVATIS

[7] = target: human TLR7 expressed on HEK293 cells (human) (UniProt Q9NYK1)
Sequence of human TLR7 expressed on HEK293 cells (human) (Q9NYK1 27-1049): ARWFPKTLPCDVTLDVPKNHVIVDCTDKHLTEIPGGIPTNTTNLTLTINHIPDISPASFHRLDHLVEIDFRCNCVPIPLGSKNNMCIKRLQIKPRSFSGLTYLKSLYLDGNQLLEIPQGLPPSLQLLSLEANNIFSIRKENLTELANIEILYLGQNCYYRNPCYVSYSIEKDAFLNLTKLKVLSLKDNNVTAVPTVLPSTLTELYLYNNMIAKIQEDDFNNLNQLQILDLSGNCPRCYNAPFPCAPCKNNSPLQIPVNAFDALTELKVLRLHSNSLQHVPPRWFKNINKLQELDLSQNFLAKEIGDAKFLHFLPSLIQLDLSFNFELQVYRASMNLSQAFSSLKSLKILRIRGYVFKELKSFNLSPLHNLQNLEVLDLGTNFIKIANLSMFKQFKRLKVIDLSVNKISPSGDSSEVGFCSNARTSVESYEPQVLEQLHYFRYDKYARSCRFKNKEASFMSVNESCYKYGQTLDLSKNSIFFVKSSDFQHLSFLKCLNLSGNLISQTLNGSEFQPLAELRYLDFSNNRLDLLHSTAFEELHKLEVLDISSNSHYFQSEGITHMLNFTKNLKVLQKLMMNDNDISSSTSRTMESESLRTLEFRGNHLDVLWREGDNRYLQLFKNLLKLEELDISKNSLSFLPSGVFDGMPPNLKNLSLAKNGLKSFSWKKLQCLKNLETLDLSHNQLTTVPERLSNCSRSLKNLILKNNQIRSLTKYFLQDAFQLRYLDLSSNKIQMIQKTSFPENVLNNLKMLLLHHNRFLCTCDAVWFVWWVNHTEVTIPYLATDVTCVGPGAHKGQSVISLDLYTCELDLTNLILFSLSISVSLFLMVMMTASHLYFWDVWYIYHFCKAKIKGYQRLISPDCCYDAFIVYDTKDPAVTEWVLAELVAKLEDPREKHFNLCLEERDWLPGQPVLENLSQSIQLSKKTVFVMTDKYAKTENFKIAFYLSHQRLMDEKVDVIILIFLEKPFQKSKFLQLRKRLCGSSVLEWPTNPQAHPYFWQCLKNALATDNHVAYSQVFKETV

## wild type YscF (from UniProt O68691 1-87)
[1]
  SEAP reporter expression in HEK293 cells, screening 1: 0.1
  SEAP reporter expression in HEK293 cells, screening 2: 0.093
[2]
  SEAP reporter expression in HEK293 cells, screening 1: 0.075
  SEAP reporter expression in HEK293 cells, screening 2: 0.074
[3]
  SEAP reporter expression in HEK293 cells, screening 1: 0.096
  SEAP reporter expression in HEK293 cells, screening 2: 0.095
[4]
  SEAP reporter expression in HEK293 cells, screening 1: 0.283
  SEAP reporter expression in HEK293 cells, screening 2: 0.272
[5]
  SEAP reporter expression in HEK293 cells, screening 1: 0.98
  SEAP reporter expression in HEK293 cells, screening 2: 0.861
[6]
  SEAP reporter expression in HEK293 cells, screening 1: 0.136
  SEAP reporter expression in HEK293 cells, screening 2: 0.139
[7]
  SEAP reporter expression in HEK293 cells, screening 1: 0.095
  SEAP reporter expression in HEK293 cells, screening 2: 0.094
